The values below come from publication PMC10635833, “A MEC-2/stomatin condensate liquid-to-solid phase transition controls neuronal mechanotransduction during touch sensing” (Nature Cell Biology, 2023).

The data set deals with the molecule itself. The experiment in a line: NMR signal intensities and chemical shifts (1H-15N correlation spectra) of the mutant against the wild type; per-residue chemical shift difference and intensity ratio between MEC-2 C-terminal domain WT and R385H, no partner added.

B1: MEC-2 C-terminal domain R385H mutant (domain or fragment, C. elegans, UniProt Q27433 371-481, looked up)
chain: PPKVEEPPSLPKKIHSCCLYKYPDWVQGMVGSEGGGGHGHSHGGGGGGLGSSQGAFHPSQAGSGPSTTTTSGRPLLRSMREAQFHSAAPPISAPNQSQTSVSQLDPALLIR
notes: MEC-2 (stomatin), C. elegans, C-terminal domain, residues 371-481 as for the wild-type construct, with R385H (allele u26); also called MEC-2 (R385H); u26 allele
As for B1, the binding result is given as “binds”.
